# According to patent US20210261685A1 (Alector, published 2021):
# Residue numbers refer to the chain shown, from its start.
# T1: human MerTK extracellular domain (ECD), recombinant (human, UniProt Q12866 21-505)
# T1 construct: also called huMerTK; not shown: polyHis tag or TEVS/Thrombin/murine IgG2a Fc tag
# T1 sequence: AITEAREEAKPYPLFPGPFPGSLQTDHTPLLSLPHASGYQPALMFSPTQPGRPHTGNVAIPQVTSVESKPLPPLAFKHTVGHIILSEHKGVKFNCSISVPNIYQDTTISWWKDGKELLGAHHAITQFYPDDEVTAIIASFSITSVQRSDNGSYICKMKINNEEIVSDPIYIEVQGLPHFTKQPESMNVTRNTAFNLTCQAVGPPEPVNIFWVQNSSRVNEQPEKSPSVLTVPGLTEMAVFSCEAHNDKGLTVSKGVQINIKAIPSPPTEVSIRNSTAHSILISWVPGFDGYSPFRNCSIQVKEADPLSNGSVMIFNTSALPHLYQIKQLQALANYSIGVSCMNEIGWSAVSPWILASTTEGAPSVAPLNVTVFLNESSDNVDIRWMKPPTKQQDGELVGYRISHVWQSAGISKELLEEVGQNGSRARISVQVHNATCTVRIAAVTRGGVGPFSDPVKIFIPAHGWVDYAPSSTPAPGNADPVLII
# T2: murine MerTK extracellular domain (ECD), recombinant (mouse, UniProt Q60805 19-497)
# T2 construct: also called moMerTK; mouse MerTK; not shown: polyHis tag or TEVS/Thrombin/murine IgG2a Fc tag
# T2 sequence: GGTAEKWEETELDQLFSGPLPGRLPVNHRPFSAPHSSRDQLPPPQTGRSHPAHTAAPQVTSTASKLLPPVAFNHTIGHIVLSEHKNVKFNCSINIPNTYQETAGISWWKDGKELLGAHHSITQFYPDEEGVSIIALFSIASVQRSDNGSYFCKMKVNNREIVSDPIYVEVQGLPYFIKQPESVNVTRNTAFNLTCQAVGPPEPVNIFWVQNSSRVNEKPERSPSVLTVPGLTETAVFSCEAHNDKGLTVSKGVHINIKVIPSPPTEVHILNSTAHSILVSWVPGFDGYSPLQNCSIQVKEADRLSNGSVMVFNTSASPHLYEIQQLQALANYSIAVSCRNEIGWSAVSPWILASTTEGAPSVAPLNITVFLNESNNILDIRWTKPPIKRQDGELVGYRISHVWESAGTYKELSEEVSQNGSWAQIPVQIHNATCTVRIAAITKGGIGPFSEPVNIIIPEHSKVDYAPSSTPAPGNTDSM
# B1: MTK-17 (antibody, human IgG1, V domains shown)
# VH: QIQLVQSGPELKKPGETVKISCKASGYTFTNFGMNWVKQAPGKGLKWMGWINTYTGEPTYADDFKGRFAFSLETSASTAYLQINNLKNEDTATYFCSRGAVLRAGAMDCWGQGTSVTVSS
# VL: DIQMTQSSSYLSVSLGGRVTITCKASDHINNWLAWYQQKPGNAPRLLISGATSLETGVPSRFSGSGSGKDYTLSITSLQTEDVATYYCQQYWSTPRTFGGGTKLEIK
# B2: MTK-16 (antibody, human IgG1, V domains shown)
# VH: LIQLVQSGPELKKPGETVKISCKASGYTFTNHGMNWVKQDPGKGLKWMGWINTYTGEPTYADDFKGRFVFSMETSASAAFLQINNLKNEDTATYFCARKGVTAARYFDYWGQGTTLTVSS
# VL: DIVMTQSPKFMSTSVGDRVSITCKASQNVRTAVAWYKKKPGQSPKALINLASNRHTGVPDRFTGSGSGTDFTLTISNVQSEDLADYFCLQHWNYPLTFGGGTKLEIK
# B3: MTK-12 (antibody, human IgG1, V domains shown)
# VH: QVQLQQSGPQLVRPGASVKISCKASGYSFTSHWMHWVKQRPGQGLEWIGMIDPSDGESRLNQKFKDKATLTVDKSSSTAYMQLSSPTFEDSAVYYCARGIYYYGITYAMDYWGQGTSVTVSS
# VL: QIVLTQSPAIMSASPGEKVTMTCSASSSVSYMYWYQQKPRSSPRLLIYDTSNLASGVPVRFSGSGSGTSYSLTISRMEAEDAATYYCQQWSSYPLTFGAGTKLELK
# B4: MTK-06 (antibody, human IgG1, V domains shown)
# VH: QIQLVQSGPELKKPGETVKISCKASGYTFTNYGMNWVKQAPGKGLKWMGWINTNTGEPTYAEEFKGRFAFSLETSASTAYLQINNLKNEDTATYFCARYYNYWYFDVWGAGTTVTVSS
# VL: QIVLSQSPAILSASPGEKVTMTCRASSSVSYMHWYQQKPGSSPKPWIYATSNLASGVPARFSGSGSGTSYSLTISRVEAEDAATYYCQQWSSKPPTFGGGTKLEIK
# B5: MTK-15 (antibody, human IgG1, V domains shown)
# VH: QIQLVQSGPELKKPGETVKISCKASGYTFTNYGVHWVKQAPGKGLKWMGWINTYTGEPTYADDFKGRFAFSLETSASTAYLQINNLKNEDMATYFCARGNRYAYMDYWGQGTSVTVSS
# VL: B4 VL with P39S, K93N, P95R
# B6: MTK-04 (antibody, human IgG1, V domains shown)
# VH: QIQLVQSGPELKKPGETVKISCKASGYTFTNYGMNWVKQAPGKGLKCMGWINTYTGEPTYADDFKGRFAFSLETSASTAYLQINNLKNEDMATYFCAKYDNYAWFAYWGQGTLVTVSA
# VL: B4 VL with I10F, Q36L, A59V, K93N, P95R, K106R
# B7: MTK-20 (antibody, human IgG1, V domains shown)
# VH: QIQLVQSGPELKKPGETVKISCKASGYTFTNYGMTWVKQAPGKGLKWMGWINTYTGEPTYADDFKGRFALSLETSASTAYLQINNLKNEDTATYFCARGGGRLGLRPLDYWGQGTTLTVSS
# VL: DIQMTQTTSSLSASLGDRVTISCRASQDINNYLNWYQQKPDGTVKLLIYYTSRLHSGVPSRFSGSGSGTDYSLTISNLEQEDIATYFCQQGNTLPWTFGGGTKLEIK
# B8: MTK-21 (antibody, human IgG1, V domains shown)
# VH: B7 VH with Y32F, K38R, K43M, G44D, T59K, N84T, L86F
# VL: B7 VL with R53S, S76T, K103R
# B9: MTK-18 (antibody, human IgG1, V domains shown)
# VH: B7 VH with N31H, L70F, R102Q
# VL: B7 VL with I21F, D28A, N30S
# B10: MTK-33 (antibody, human IgG1, V domains shown)
# VH: QVQLQQPGPELVRPGTSVKLSCKASGYTFTSYWMHWIKQRPGQGLEWIGVIDPSDNYINYNQKFKGKATLTVDTSSSTAYLQLSSLTSEDSAVYYCAREAGTRGYFDYWGQGTTLTVSS
# VL: SIVMTQTPKFLLVSAGDRVIITCKASQSVSNTVAWYQQKPGQSPKLLIYYASNRYTGVPDRFTGSGYGTDFTFTISTVQAEDLAVYFCQQDYRSPFTFGSGTQLEMK
# B11: MTK-10 (antibody, human IgG1, V domains shown)
# VH: QVTLKESGPGILQPSQTLSLTCSFSGFSLTTSGMGVGWIRQPSGKGLEWLAHIWSDDDKRSNPALKSRLTISQDSSTNQVFLKIASVDTADSATYYCSHLTPVREFAYWGPGTLVTVSE
# VL: DIQMTQTTSSLSASLGDRVTISCSASQGISNYLNWFQQKPDGTVKLLIYYTSRLHSGVPSRFSGSGSGTDFSLTISNLEPEDIATYYCQQYTKLPYTFGGGTKLEIK
# B12: MTK-11 (antibody, human IgG1, V domains shown)
# VH: QVQLKQSGPGLVQPSQSLSITCTVSGFSLTDYGVHWVRQSPGKGLEWLGVIWSSGTTDYNEAFISRLSISKDNSKSHVFFKMNSLQAIDTAIYYCARKGHDPYAMDYWGQGTSVTVSS
# VL: QIVLTQSPAIMSASLGERVTMTCTASSSISSSYFHWYQQKPGSSPKLWIYSTSNLPSGVPARFSGSGSGTSYSLTISSMEAEDAATYYCHQYYRSPLTFGAGTKLELK
# B13: MTK-05 (antibody, human IgG1, V domains shown)
# VH: QVQLQQSGAELVQPGTSVRLSCKTSGYTFTSYWIQWVKQRPGQGLGWIGEIFPGTGTTYYNEKFKGKATLTIDTSSSTAYMQLSSLTSEDSAVYFCARDGAYFDVWGAGTTVTVSS
# VL: DIQMTQSPASLSASVGETVTFTCRASENIFSYLAWYQQKQGKSPQLLVYNAKTLAEGVPSRFSGSGSGTHFSLKINSLQPEDFGSYYCLHHYGTPLTFGAGTKLELK
# B14: MTK-03 (antibody, human IgG1, V domains shown)
# VH: DVQLQESGPGLVKPSQSLSLTCSVTGYSITSGYYWNWIRQFPGNTLEWMGYMSFDGDNKFNPSLKNRISITRDTSKNQFFLRLNSVTTEDTATYYCARGGYNYGSTEANWGQGTLVTVSA
# VL: QIVLTQSPAIMSAFPGEKVTITCSASSSVNYMHWFQQKPGTSPKLWIYSTSNLASGVPARFSGSGSGTSYSLTISRMEAEDAATYYCQQRSSYPFTFGSGTKLEIK
# B15: MTK-13 (antibody, human IgG1, V domains shown)
# VH: DVQLQESGPGLVKPSQSLSLTCSVTGYSITSGYYWNWIRQFPGNKLEWMGNIDYDGSNKYNPSLKNRISITRDTSKNHFFLKLNSVTPEDTATYFCARDGGNYRSFAYWGQGTLVTVSA
# VL: B14 VL with A9P, F14S, N30S, H33Y, S51F, A82V
# B16: MTK-07 (antibody, human IgG1, V domains shown)
# VH: B14 VH with A120T
# VL: B14 VL with N30T, Y48F
# B17: MTK-19 (antibody, human IgG1, V domains shown)
# VH: EVQLQQSGPELVKPGASVKISCKTSGYTFTEYTMHWVKQSHGKSLEWLGGFNPNNVITSYNQRFQGRATLTVDKSSSTAYMELRSLTSDDSAVYYCTRGDLLWSLLLPGNYFDYWGQGTTLTVSS
# VL: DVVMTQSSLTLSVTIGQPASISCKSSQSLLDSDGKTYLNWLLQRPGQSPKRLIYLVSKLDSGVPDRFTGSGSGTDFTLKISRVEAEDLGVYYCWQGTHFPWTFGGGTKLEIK
# B18: MTK-01 (antibody, human IgG1, V domains shown)
# VH: B6 VH with S77T, M91T, K98R, Y99R, N101R, A103T
# VL: B4 VL with K93N
# Target: T1, human MerTK extracellular domain (ECD), …
# Experiment: SPR, Carterra LSA, antibody immobilised
# Method in brief: (§1)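 Anti-MerTK antibodies diluted to 10 μg/ml in 10 mM Acetate, pH 4.25 were amine-coupled in a 96-spot array onto an HC200M chip activated with MES/sulfo-NHS/EDC, then blocked with 1M Ethanolamine pH 8.5. On a Carterra LSA, recombinant MerTK extracellular domain was injected at 33.3, 100, and 300 nM in HBS-TE with 0.5 mg/ml BSA, lowest to highest without regeneration. KD came from fitted k-on and k-off.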
row,Binder,Kd [nM]
1,B1,25
2,B2,1.4
3,B3,5.3
4,B4,18
5,B5,2.7
6,B6,33
7,B7,9.3
8,B8,40
9,B9,18
10,B10,6.5
11,B11,2
12,B12,3
13,B13,6.7
14,B14,54
15,B15,37
16,B16,43
17,B17,2.4

# Target: T2, murine MerTK extracellular domain …
# Experiment: SPR, Carterra LSA, antibody immobilised
# Method in brief: as §1
Binder,binding result,Kd [nM]
B1,no binding (tested: 300 nM),
B2,no binding (tested: 300 nM),
B3,no binding (tested: 300 nM),
B18,no binding (tested: 300 nM),
B4,no binding (tested: 300 nM),
B5,no binding (tested: 300 nM),
B6,no binding (tested: 300 nM),
B7,no binding (tested: 300 nM),
B8,no binding (tested: 300 nM),
B9,no binding (tested: 300 nM),
B10,,75
B11,no binding (tested: 300 nM),
B12,no binding (tested: 300 nM),
B13,no binding (tested: 300 nM),
B14,no binding (tested: 300 nM),
B15,no binding (tested: 300 nM),
B16,no binding (tested: 300 nM),
B17,,130
